Reference: patent US20180155451A1 (published 2018)
Positions count from the first letter of the chain named. Names and notes keep the numbering of the source.

T1: FcgRIIb (human, UniProt P31994 43-217)
T1 construct: extracellular domain; also called FcγRIIb; not shown: His tag attached to the C terminus
T1 sequence (looked up): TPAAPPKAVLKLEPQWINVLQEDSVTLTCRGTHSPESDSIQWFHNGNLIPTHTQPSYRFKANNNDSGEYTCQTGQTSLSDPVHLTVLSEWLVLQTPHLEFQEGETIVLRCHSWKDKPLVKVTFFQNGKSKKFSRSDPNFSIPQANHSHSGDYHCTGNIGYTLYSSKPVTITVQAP

B1: H240-Kn061 (W236Y)/H240-Hl071/L73-k0 (antibody, human IgG1, kappa)
heavy 1: QDQLVQSGAEVKKPGASVKVSCKASGFNIKDTYIQWVRQAPGQGLEWMGRIDPLRKQTKYREKFEGRVTITADTSTNTAYMELSSLRSEDTAVYYCVRSGREFDYWGQGTLVTVSSASTKGPSVFPLAPSSKSTSGGTAALGCLVKDYFPEPVTVSWNSGALTSGVHTFPAVLQSSGLYSLSSVVTVPSSSLGTQTYICNVNHKPSNTKVDKKVEPKSCDKTHTCPPCPAPEYYYGPSVFLFPPKPKDTLMISRTPEVTCVVVDVSDEDPEVKFNWYVDGVEVHNAKTKPREEQYNATYRVVSVLTVLHQDWLNGKEYKCKVSNKALPAPIEKTISKAKGQPREPQVCTLPPSRDELTKNQVSLWCLVKGFYPSDIAVEWESNGQPENNYKTTPPVLDSDGSFFLYSKLTVDKSRWQQGNVFSCSVMHEALHNHYTQKSLSLSP
heavy 2: QDQLVQSGAEVKKPGASVKVSCKASGFNIKDTYIQWVRQAPGQGLEWMGRIDPLRKQTKYREKFEGRVTITADTSTNTAYMELSSLRSEDTAVYYCVRSGREFDYWGQGTLVTVSSASTKGPSVFPLAPSSKSTSGGTAALGCLVKDYFPEPVTVSWNSGALTSGVHTFPAVLQSSGLYSLSSVVTVPSSSLGTQTYICNVNHKPSNTKVDKKVEPKSCDKTHTCPPCPAPELLGGPSVFLFPPKPKDTLMISRTPEVTCVVVDVSHEDPEVKFNWYVDGVEVHNAKTKPREEQYNSTYRVVSVLTVLHQDWLNGKEYKCKVSNDALPMPIEETISKAKGQPREPQVYTLPPSRCELTKNQVSLSCAVKGFYPSDIAVEWESNGQPENNYKTTPPVLDSDGSFFLVSKLTVDKSRWQQGNVFSCSVMHEALHNHYTQKSLSLSP
light: DIQMTQSPSSLSASVGDRVTITCRASQDIHKYIAWYQQKPGQAPRLLIQYTSTLQPGVPSRFSGSGSGTDYTFTISSLQPEDIATYYCLQYEQLRTFGGGTKVEIKRTVAAPSVFIFPPSDEQLKSGTASVVCLLNNFYPREAKVQWKVDNALQSGNSQESVTEQDSKDSTYSLSSTLTLSKADYEKHKVYACEVTHQGLSSPVTKSFNRGEC
B2: H240-Kn061 (Y235E)/H240-Hl071/L73-k0 (antibody, human IgG1, kappa)
heavy 1: B1 heavy 1 with Y234E, Y235W
heavy 2: B1 heavy 2
light: B1 light
B3: H240-Kn061 (Y235L)/H240-Hl071/L73-k0 (antibody, human IgG1, kappa)
heavy 1: B1 heavy 1 with Y234L, Y235W
heavy 2: B1 heavy 2
light: B1 light
B4: H240-Kn061 (Y234A)/H240-Hl071/L73-k0 (antibody, human IgG1, kappa)
heavy 1: B1 heavy 1 with Y233A, Y235W
heavy 2: B1 heavy 2
light: B1 light
B5: H240-Kn061 (Y234H)/H240-Hl071/L73-k0 (antibody, human IgG1, kappa)
heavy 1: B1 heavy 1 with Y233H, Y235W
heavy 2: B1 heavy 2
light: B1 light
B6: H240-Kn061 (Y234G)/H240-Hl071/L73-k0 (antibody, human IgG1, kappa)
heavy 1: B1 heavy 1 with Y233G, Y235W
heavy 2: B1 heavy 2
light: B1 light
B7: H240-Kn061 (Y234S)/H240-Hl071/L73-k0 (antibody, human IgG1, kappa)
heavy 1: B1 heavy 1 with Y233S, Y235W
heavy 2: B1 heavy 2
light: B1 light
B8: H240-Kn061 (Y235F)/H240-Hl071/L73-k0 (antibody, human IgG1, kappa)
heavy 1: B1 heavy 1 with Y234F, Y235W
heavy 2: B1 heavy 2
light: B1 light
B9: GpH7-B3 variant Q295_13S/GpL16-k0 (antibody, human IgG1, kappa)
heavy: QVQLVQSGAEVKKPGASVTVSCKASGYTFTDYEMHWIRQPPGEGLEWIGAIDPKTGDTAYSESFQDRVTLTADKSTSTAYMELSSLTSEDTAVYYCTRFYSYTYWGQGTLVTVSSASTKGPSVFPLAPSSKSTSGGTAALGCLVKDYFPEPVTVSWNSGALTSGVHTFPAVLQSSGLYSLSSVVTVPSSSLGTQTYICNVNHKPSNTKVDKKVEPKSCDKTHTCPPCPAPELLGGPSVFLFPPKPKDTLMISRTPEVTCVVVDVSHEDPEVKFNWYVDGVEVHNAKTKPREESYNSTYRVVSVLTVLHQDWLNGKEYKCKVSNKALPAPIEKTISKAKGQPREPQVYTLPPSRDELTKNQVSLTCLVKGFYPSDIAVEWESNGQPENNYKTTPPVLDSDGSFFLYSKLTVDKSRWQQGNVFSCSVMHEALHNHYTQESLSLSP
light: DIVMTQSPLSLPVTPGEPASISCQASESLVHSNRNTYLHWYLQKPGQSPQLLIYKVSNRFSGVPDRFSGSGSGTDFTLKISRVEAEDVGVYYCSQNTHVPPTFGQGTKVEIERTVAAPSVFIFPPSDEQLKSGTASVVCLLNNFYPREAKVQWKVDNALQSGNSQESVTEQDSKDSTYSLSSTLTLSKADYEKHKVYACEVTHQGLSSPVTKSFNRGEC
notes: mutation in both H chains; also called Ho Ab Q295_13S; Q295S
B10: GpH7-A5/GpH7-B3 variant P271_16H/GpL16-k0 (antibody, human IgG1, kappa)
heavy 1: not shown
heavy 2: not shown
light: B9 light
notes: mutation in one H chain only; also called He Ab P271_16H; P271H
B11: GpH7-B3 variant Q295_16H/GpL16-k0 (antibody, human IgG1, kappa)
heavy: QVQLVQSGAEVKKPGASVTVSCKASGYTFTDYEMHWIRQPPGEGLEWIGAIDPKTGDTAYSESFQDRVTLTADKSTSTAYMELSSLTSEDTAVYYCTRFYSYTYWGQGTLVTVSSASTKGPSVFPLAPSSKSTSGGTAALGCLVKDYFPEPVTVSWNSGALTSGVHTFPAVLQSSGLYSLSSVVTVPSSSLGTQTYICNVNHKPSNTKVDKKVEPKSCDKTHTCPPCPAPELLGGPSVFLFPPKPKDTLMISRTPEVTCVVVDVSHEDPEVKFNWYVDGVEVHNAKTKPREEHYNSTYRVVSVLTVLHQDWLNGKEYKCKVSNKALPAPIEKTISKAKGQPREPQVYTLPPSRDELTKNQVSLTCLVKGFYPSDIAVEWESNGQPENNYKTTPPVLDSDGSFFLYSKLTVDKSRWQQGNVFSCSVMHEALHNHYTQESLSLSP
light: B9 light
notes: mutation in both H chains; also called Ho Ab Q295_16H; Q295H
B12: GpH7-A5/GpH7-B3 variant Q295_18N/GpL16-k0 (antibody, human IgG1, kappa)
heavy 1: not shown
heavy 2: not shown
light: B9 light
notes: mutation in one H chain only; also called He Ab Q295_18N; Q295N
B13: GpH7-A5/GpH7-B3 variant Q295_14T/GpL16-k0 (antibody, human IgG1, kappa)
heavy 1: not shown
heavy 2: not shown
light: B9 light
notes: mutation in one H chain only; also called He Ab Q295_14T; Q295T
B14: GpH7-A5/GpH7-B3 variant Q295_03V/GpL16-k0 (antibody, human IgG1, kappa)
heavy 1: not shown
heavy 2: not shown
light: B9 light
notes: mutation in one H chain only; also called He Ab Q295_03V; Q295V
B15: GpH7-A5/GpH7-B3 variant Q295_13S/GpL16-k0 (antibody, human IgG1, kappa)
heavy 1: not shown
heavy 2: not shown
light: B9 light
notes: mutation in one H chain only; also called He Ab Q295_13S; Q295S
B16: GpH7-A5/GpH7-B3 variant P329_01G/GpL16-k0 (antibody, human IgG1, kappa)
heavy 1: not shown
heavy 2: not shown
light: B9 light
notes: mutation in one H chain only; also called He Ab P329_01G; P329G

Experiments:
FcgRIIb = molecular target: T1, FcgRIIb; test: SPR (Biacore); KD of H240-Kn061/H240-Hl071/L73-k0 divided by KD of the variant
Description: (§1) The antibodies were assessed for the binding to each FcgR. […] The resultant value was defined as relative KD, and used as an assessment indicator.
(§2) Analysis of interaction between obj ective antibody and the FcγR was carried out using Biacore T100 (GE Healthcare), Biacore T200, Biacore A100, and Biacore 4000. HBS-EP+ (GE Healthcare) was used as the running buffer, and the measurement temperature was set to 25° C. Chips produced by immobilizing the antigen peptide by the amine coupling method to a Series S sensor Chip CM5 (GE Healthcare), chips produced by allowing preliminarily biotinylated antigen peptides to interact with and immobilize onto a Series S Sensor Chip SA (certified) (GE Healthcare), chips produced by immobilizing Protein L (ACTIGEN, BioVision) to Series S Sencor Chip CM5 (GE Healthcare), or chips produced by immobilizing Protein A/G (Thermo Scientific) to Series S Sencor Chip CM5 (GE Healthcare) were used. Antibodies of interest were captured onto these chips, and allowed to interact to each FcγR diluted with running buffer.

FcgRIIIa V = molecular target: T2, FcgRIIIa V (human, UniProt P08637 17-208); test: as above
T2 construct: extracellular domain; also called FcγRIIIa V; not shown: His tag attached to the C terminus
T2 sequence (P08637 17-208 F176V limits assumed): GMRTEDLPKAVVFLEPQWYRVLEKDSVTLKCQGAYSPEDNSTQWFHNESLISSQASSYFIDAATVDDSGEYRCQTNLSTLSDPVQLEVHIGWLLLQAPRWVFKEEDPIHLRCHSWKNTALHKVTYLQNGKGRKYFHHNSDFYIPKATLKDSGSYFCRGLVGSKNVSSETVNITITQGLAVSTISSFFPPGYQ
Description: as §1, §2

FcgRIIIa F = molecular target: T3, FcgRIIIa F (human, UniProt P08637 17-208); test: as above
T3 construct: extracellular domain; also called FcγRIIIa F; 3aF; not shown: His tag attached to the C terminus
T3 sequence (P08637 17-208): as the sequence (P08637 17-208 F176V limits assumed) above, with V160F counted along it
Description: as §1, §2

[1] = molecular target: T4, FcγRIa extracellular domain with C-terminal His tag (human, UniProt P12314 16-292); test: SPR Biacore, relative FcγRIa binding vs GpH7-B3/GpL16-k0
T4 construct: extracellular domain; also called FcgRI; CD64; not shown: His tag at the C terminus
T4 sequence (P12314 16-292): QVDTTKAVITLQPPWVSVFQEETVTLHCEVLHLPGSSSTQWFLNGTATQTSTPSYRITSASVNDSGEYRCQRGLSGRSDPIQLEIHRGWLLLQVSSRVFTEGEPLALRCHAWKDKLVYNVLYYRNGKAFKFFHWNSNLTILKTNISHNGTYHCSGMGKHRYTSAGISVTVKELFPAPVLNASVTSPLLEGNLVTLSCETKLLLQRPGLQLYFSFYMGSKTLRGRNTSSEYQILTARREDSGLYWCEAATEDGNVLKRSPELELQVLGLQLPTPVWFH

[2] = molecular target: T4, FcγRIa extracellular domain with …; test: SPR Biacore, relative FcγRIa binding vs GpH7-A5/GpH7-B3/GpL16-k0

Binder | Relative KD (FcgRIIb) | Relative KD (FcgRIIIa V) | Relative KD (FcgRIIIa F) | Ho/Con_1a [1] | He/Con_1a [2]
B1 | 0.8 | 1.2 | 0.8 | – | –
B2 | 0.8 | 3.2 | 2.2 | – | –
B3 | 0.9 | 1.5 | 1.8 | – | –
B4 | 1.2 | 0.9 | 0.8 | – | –
B5 | 1.3 | 0.9 | 0.8 | – | –
B6 | 0.9 | 0.9 | 0.8 | – | –
B7 | 1 | 0.9 | 0.9 | – | –
B8 | 1.2 | 1.5 | 1.3 | – | –
B9 | – | – | – | 101 % of HoCon Ab (=100) | –
B10 | – | – | – | – | 102 % of HeCon Ab (=100)
B11 | – | – | – | 99.1 % of HoCon Ab (=100) | –
B12 | – | – | – | – | 102 % of HeCon Ab (=100)
B13 | – | – | – | – | 103 % of HeCon Ab (=100)
B14 | – | – | – | – | 104 % of HeCon Ab (=100)
B15 | – | – | – | – | 102 % of HeCon Ab (=100)
B16 | – | – | – | – | 101 % of HeCon Ab (=100)
